# Patent US20170267730A1 (UNIVERSITY COURT OF THE UNIVERSITY OF EDINBURGH, published 2017)
# Tests used:
# [1] = biological target: the molecule itself; test: size-exclusion chromatography with multiangle light scattering (self-association in solution, disulfide-linked dimers)
# [2] = biological target: the molecule itself; test: TEM, uranyl acetate stain (self-assembly into a 2D lattice)
# Description: Multiple domains of the WT-BslA lattice could be observed in any location on the grid. The observed domain areas varied from as small as 1000 nm² (˜50 BslA molecules) up to 200000 nm² (>10000 BslA molecules). Less ordered “inter-domain” areas were also observed. […] The largest BslA-L77K domain size observed was approximately […] (1250 BslA molecules).
Protein,binding result [1],binding result [2]
"WT-BslA truncated, BslA42-181 (other, In solution it is a mix of monomers and disulfide-linked dimers; also called wild-type biofilm-surface layer protein A; YuaB) MRTQSTASLFATITGASKTEWSFSDIELTYRPNTLLSLGVMEFTLPSGFTANTKDTLNGNALRTTQILNNGKTVRVPLALDLLGAGEFKLKLNNKTLPAAGTYTFRAENKSLSIGNKFYAEASIDVAKRSTPPTQPCGCN",binds,
"BslA-L77K truncated (other, also called L77K BslA; L77K-BslA) MRTQSTASLFATITGASKTEWSFSDIELTYRPNTLKSLGVMEFTLPSGFTANTKDTLNGNALRTTQILNNGKTVRVPLALDLLGAGEFKLKLNNKTLPAAGTYTFRAENKSLSIGNKFYAEASIDVAKRSTPPTQPCGCN",,binds
